Source: publication doi:10.1101/2025.11.20.689565, “Phosphorylation remodels the mitotic centrosome matrix to generate bipartite γ-tubulin complex docking sites” (bioRxiv, 2025)

T1: untagged SPD-5 aa 101-473, not phosphorylated (C. elegans, UniProt P91349 101-473)
T1 construct: source: E. coli BL21(DE3) pLysS, purified (glutathione agarose, cleaved off GST)
T1 sequence (looked up): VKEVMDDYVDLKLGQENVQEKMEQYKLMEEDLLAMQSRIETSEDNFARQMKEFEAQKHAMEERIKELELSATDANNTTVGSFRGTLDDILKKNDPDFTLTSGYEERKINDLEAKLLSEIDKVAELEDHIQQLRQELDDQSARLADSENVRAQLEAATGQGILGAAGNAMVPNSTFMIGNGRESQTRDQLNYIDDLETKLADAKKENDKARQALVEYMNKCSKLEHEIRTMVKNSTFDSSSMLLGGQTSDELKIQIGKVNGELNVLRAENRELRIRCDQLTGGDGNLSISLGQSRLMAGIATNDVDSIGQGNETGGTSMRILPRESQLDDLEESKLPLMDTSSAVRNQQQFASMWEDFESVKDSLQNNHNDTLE

B1: MBP-6His-HA (M6HH)-tagged SPD-5 aa 1-345, not phosphorylated (domain or fragment, C. elegans, UniProt P91349 1-345, looked up)
chain: MEDNSVLNEDSNLEHVEGQPRRSMSQPVLNVEGDKRTSSTSATQQQVLSGAFSSADVRSIPIIQTWEENKALKTKITILRGELQMYQRRYSEAKEASQKRVKEVMDDYVDLKLGQENVQEKMEQYKLMEEDLLAMQSRIETSEDNFARQMKEFEAQKHAMEERIKELELSATDANNTTVGSFRGTLDDILKKNDPDFTLTSGYEERKINDLEAKLLSEIDKVAELEDHIQQLRQELDDQSARLADSENVRAQLEAATGQGILGAAGNAMVPNSTFMIGNGRESQTRDQLNYIDDLETKLADAKKENDKARQALVEYMNKCSKLEHEIRTMVKNSTFDSSSMLLGG
notes: source: E. coli BL21(DE3) pLysS, purified (Ni-NTA)
B2: untagged SPD-5 aa 1-473, not phosphorylated (domain or fragment, C. elegans, UniProt P91349 1-473, looked up)
chain: MEDNSVLNEDSNLEHVEGQPRRSMSQPVLNVEGDKRTSSTSATQQQVLSGAFSSADVRSIPIIQTWEENKALKTKITILRGELQMYQRRYSEAKEASQKRVKEVMDDYVDLKLGQENVQEKMEQYKLMEEDLLAMQSRIETSEDNFARQMKEFEAQKHAMEERIKELELSATDANNTTVGSFRGTLDDILKKNDPDFTLTSGYEERKINDLEAKLLSEIDKVAELEDHIQQLRQELDDQSARLADSENVRAQLEAATGQGILGAAGNAMVPNSTFMIGNGRESQTRDQLNYIDDLETKLADAKKENDKARQALVEYMNKCSKLEHEIRTMVKNSTFDSSSMLLGGQTSDELKIQIGKVNGELNVLRAENRELRIRCDQLTGGDGNLSISLGQSRLMAGIATNDVDSIGQGNETGGTSMRILPRESQLDDLEESKLPLMDTSSAVRNQQQFASMWEDFESVKDSLQNNHNDTLE
notes: also called SPD-5 N-terminus; source: E. coli BL21(DE3) pLysS, purified (glutathione agarose, cleaved off GST)
B3: MBP-6His-HA (M6HH)-tagged SPD-5 aa 1-473, not phosphorylated (domain or fragment, C. elegans, UniProt P91349 1-473, looked up)
chain: B2 chain
notes: as for B1
B4: untagged SPD-5 aa 1-473, PLK1-phosphorylated (domain or fragment, C. elegans, UniProt P91349 1-473, looked up)
chain: B2 chain
modifications: phosphorylated in vitro by PLK1(T194D); sites not all mapped (predicted PLK1 sites S5, S11, S170, T178, T198, T274, T335, S339, S340)
notes: source: E. coli BL21(DE3) pLysS, purified (glutathione agarose, cleaved off GST); incubated with PLK1-6His and ATP
B5: MBP-6His-HA (M6HH)-tagged SPD-5 aa 1-101, not phosphorylated (domain or fragment, C. elegans, UniProt P91349 1-101, looked up)
chain: MEDNSVLNEDSNLEHVEGQPRRSMSQPVLNVEGDKRTSSTSATQQQVLSGAFSSADVRSIPIIQTWEENKALKTKITILRGELQMYQRRYSEAKEASQKRV
notes: also called PRGB1; source: E. coli BL21(DE3) pLysS, purified (Ni-NTA)

Columns and labels:
[1] = biological target: the molecule itself; test: SEC-MALS; Superose 6 increase 10/300 or Superdex 200 increase 10/300 in 20 mM Tris-HCl pH 7.5, 50 mM NaCl, 5 mM EGTA, 2 mM MgCl2, 1 mM DTT; 120 μL of ~2.0 mg/ml protein loaded; with or without PLK1 phosphorylation
[2] = biological target: T1, untagged SPD-5 aa 101-473, not …; test: pull-down; MBP pull-down: purified SPD-5 fragments mixed at 2.0 μM with or without 500 nM PLK1(T194D) in kinase buffer 1 h at 23°C; then 75 nM each with 2 μg anti-MBP antibody in lysis buffer 2 h at 4°C and protein A beads 1 h at 4°C; five washes; immunoblot or Coomassie; settings: both partners purified

Row | Binder | stoichiometry N [1] | binding result [2]
1 | B1 | 2 | 
2 | B2 | 2 | 
3 | B3 | 2 | 
4 | B4 | 2 | 
5 | B5 |  | binds
